From publication PMC9992347 (Molecular cell, 2023)

What was measured:
cryo-EM structure = target: the molecule itself; test: cryo-EM structure
[1] = target: the molecule itself; test: small-angle X-ray scattering

Protein	binding result (cryo-EM structure)	binding result [1]
SPOP^1-374 W22R (natural protein, human, UniProt O43791 1-374, looked up) MSRVPSPPPPAEMSSGPVAESRCYTQIKVVKFSYMWTINNFSFCREEMGEVIKSSTFSSGANDKLKWCLRVNPKGLDEESKDYLSLYLLLVSCPKSEVRAKFKFSILNAKGEETKAMESQRAYRFVQGKDWGFKKFIRRDFLLDEANGLLPDDKLTLFCEVSVVQDSVNISGQNTMNMVKVPECRLADELGGLWENSRFTDCCLCVAGQEFQAHKAILAARSPVFSAMFEHEMEESKKNRVEINDVEPEVFKEMMCFIYTGKAPNLDKMADDLLAAADKYALERLKVMCEDALCSNLSVENAAEILILADLHSADQLKTQAVDFINYHASDVLETSGWKSMVVSHPHLVAEAYRSLASAQCPFLGPPRKRLKQS	binds	–
SPOP^1-374 E47K (natural protein, human, UniProt O43791 1-374, looked up) MSRVPSPPPPAEMSSGPVAESWCYTQIKVVKFSYMWTINNFSFCREKMGEVIKSSTFSSGANDKLKWCLRVNPKGLDEESKDYLSLYLLLVSCPKSEVRAKFKFSILNAKGEETKAMESQRAYRFVQGKDWGFKKFIRRDFLLDEANGLLPDDKLTLFCEVSVVQDSVNISGQNTMNMVKVPECRLADELGGLWENSRFTDCCLCVAGQEFQAHKAILAARSPVFSAMFEHEMEESKKNRVEINDVEPEVFKEMMCFIYTGKAPNLDKMADDLLAAADKYALERLKVMCEDALCSNLSVENAAEILILADLHSADQLKTQAVDFINYHASDVLETSGWKSMVVSHPHLVAEAYRSLASAQCPFLGPPRKRLKQS	binds	–
SPOP^1-374 W131G (natural protein, human, UniProt O43791 1-374, looked up) MSRVPSPPPPAEMSSGPVAESWCYTQIKVVKFSYMWTINNFSFCREEMGEVIKSSTFSSGANDKLKWCLRVNPKGLDEESKDYLSLYLLLVSCPKSEVRAKFKFSILNAKGEETKAMESQRAYRFVQGKDGGFKKFIRRDFLLDEANGLLPDDKLTLFCEVSVVQDSVNISGQNTMNMVKVPECRLADELGGLWENSRFTDCCLCVAGQEFQAHKAILAARSPVFSAMFEHEMEESKKNRVEINDVEPEVFKEMMCFIYTGKAPNLDKMADDLLAAADKYALERLKVMCEDALCSNLSVENAAEILILADLHSADQLKTQAVDFINYHASDVLETSGWKSMVVSHPHLVAEAYRSLASAQCPFLGPPRKRLKQS	–	binds
